Measured values from patent US20250262210A1 (TRUSTEES OF COLUMBIA UNIVERSITY IN THE CITY OF NEW YORK, published 2025).

Assays:
Assay in all cases: IP/MS, LZTR1 wild type-FLAG, U87
EIF2AK4 = EIF2AK4 (human, UniProt Q9P2K8 1-1649, limits assumed)
Procedure, shortened: (§1)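 Read-out: spectral counts from LC-MS/MS (Orbitrap Fusion) after MaxQuant identification. Variable modifications were Met oxidation, protein N-terminal acetylation and N/Q deamidation.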

ARHGEF28 = ARHGEF28 (human, UniProt Q8N1W1 1-1705, limits assumed)
Procedure, shortened: as §1

FKBP15 = target: T1, FKBP15 (human, UniProt Q5T1M5 1-1219, limits assumed)
T1 sequence (looked up): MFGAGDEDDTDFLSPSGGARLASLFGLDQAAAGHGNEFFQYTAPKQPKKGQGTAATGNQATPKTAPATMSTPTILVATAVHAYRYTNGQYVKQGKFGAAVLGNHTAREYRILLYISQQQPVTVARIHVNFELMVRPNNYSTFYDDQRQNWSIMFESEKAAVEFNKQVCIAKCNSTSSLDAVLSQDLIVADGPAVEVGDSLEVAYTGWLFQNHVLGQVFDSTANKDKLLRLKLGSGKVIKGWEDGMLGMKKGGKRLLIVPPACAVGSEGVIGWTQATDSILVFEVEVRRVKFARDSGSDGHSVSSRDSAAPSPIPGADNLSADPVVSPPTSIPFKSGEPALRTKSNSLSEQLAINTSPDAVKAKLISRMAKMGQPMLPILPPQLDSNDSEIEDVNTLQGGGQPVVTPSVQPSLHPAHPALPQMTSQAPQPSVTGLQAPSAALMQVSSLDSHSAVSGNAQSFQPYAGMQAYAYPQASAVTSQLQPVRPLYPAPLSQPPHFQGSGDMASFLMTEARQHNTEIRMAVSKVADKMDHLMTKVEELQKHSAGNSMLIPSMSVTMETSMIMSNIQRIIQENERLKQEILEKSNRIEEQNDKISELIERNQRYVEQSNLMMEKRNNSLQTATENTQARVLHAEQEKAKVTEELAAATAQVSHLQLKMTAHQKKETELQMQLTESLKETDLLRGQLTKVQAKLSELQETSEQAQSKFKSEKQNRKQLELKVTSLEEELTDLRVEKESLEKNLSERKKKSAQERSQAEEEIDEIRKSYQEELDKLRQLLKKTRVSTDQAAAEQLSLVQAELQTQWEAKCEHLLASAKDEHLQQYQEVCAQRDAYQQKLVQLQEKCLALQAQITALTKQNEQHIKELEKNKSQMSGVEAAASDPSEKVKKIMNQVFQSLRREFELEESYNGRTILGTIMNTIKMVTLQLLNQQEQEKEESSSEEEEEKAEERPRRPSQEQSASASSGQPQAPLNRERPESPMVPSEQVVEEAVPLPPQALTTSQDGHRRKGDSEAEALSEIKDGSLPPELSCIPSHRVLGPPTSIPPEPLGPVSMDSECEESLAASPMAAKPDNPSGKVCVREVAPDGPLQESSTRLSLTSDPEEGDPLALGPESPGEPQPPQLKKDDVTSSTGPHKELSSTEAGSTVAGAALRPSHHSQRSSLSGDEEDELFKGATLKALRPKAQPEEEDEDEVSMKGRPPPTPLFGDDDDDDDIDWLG
Procedure, shortened: as §1

LONP2 = target: T2, LONP2 (human, UniProt Q86WA8 2-852, limits assumed)
T2 sequence (looked up): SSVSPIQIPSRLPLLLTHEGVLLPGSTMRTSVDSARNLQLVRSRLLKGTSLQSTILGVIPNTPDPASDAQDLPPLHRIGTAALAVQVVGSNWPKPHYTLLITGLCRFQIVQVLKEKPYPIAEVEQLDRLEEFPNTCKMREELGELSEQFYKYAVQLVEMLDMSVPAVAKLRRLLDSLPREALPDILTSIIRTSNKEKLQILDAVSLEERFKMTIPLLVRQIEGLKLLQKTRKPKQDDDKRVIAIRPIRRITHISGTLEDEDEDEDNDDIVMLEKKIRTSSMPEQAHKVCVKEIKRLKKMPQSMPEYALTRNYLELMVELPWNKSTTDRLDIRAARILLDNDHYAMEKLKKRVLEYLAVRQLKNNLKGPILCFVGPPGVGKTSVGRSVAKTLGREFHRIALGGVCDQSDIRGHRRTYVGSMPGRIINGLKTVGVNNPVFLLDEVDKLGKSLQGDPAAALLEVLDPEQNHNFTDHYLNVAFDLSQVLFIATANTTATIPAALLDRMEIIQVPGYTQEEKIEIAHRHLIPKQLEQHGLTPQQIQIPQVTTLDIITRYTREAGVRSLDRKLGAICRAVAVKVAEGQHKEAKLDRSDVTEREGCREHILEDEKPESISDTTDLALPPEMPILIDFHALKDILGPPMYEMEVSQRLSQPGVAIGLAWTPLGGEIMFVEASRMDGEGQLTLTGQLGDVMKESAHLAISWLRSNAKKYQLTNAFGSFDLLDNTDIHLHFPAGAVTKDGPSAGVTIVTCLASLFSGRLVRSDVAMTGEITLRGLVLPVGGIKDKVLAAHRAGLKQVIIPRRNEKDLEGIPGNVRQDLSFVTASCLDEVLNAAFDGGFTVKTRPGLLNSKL
Procedure, shortened: as §1

THADA = THADA (human, UniProt Q6YHU6 1-1953, limits assumed)
Chain of THADA (Q6YHU6 whole entry): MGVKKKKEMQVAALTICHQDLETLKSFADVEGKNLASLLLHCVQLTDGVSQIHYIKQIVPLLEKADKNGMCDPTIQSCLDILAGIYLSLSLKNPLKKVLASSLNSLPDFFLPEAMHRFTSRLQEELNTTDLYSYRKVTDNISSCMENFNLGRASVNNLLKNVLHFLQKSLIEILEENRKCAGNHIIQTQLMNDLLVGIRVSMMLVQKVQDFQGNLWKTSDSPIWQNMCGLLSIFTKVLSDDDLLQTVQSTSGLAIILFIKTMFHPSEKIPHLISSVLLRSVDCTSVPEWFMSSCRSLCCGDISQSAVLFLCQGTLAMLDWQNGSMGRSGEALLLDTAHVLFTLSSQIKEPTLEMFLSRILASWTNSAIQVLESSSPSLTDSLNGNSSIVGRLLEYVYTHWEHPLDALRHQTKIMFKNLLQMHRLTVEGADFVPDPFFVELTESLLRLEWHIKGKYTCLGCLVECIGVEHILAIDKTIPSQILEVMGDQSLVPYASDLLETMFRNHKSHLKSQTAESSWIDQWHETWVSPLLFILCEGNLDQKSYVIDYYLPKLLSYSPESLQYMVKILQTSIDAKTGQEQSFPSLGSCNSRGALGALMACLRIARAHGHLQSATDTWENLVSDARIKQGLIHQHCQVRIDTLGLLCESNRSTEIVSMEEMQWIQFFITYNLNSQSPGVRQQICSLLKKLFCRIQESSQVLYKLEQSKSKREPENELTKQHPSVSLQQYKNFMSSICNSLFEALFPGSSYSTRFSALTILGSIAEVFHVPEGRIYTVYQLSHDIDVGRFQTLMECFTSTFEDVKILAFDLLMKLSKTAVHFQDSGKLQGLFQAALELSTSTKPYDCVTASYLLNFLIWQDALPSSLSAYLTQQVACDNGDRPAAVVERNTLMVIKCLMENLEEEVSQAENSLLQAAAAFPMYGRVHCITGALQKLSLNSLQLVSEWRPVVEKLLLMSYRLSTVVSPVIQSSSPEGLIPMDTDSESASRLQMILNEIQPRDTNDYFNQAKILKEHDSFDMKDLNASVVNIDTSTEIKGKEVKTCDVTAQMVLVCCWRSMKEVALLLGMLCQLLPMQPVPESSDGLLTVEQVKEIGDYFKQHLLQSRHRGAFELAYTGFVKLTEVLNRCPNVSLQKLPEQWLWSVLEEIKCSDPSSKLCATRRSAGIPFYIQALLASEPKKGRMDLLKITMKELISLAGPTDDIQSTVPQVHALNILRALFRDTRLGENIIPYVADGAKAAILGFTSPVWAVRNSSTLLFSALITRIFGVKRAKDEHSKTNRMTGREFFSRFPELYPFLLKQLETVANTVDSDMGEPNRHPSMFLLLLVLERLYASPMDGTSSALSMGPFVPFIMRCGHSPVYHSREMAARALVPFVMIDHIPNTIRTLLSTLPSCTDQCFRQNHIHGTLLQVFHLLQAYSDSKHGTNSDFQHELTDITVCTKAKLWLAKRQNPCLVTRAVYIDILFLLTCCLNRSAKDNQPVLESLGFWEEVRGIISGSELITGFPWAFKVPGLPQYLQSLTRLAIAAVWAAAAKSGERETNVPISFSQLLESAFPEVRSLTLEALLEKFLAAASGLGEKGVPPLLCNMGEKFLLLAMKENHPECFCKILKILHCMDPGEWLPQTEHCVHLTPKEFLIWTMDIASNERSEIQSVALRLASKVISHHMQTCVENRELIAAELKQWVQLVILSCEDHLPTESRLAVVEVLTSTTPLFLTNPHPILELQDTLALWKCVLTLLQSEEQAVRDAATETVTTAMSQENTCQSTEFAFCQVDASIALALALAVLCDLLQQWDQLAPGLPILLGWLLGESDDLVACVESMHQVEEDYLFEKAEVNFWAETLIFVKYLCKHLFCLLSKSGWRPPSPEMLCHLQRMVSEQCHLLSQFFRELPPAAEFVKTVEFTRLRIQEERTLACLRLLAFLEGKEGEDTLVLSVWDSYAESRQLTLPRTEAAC
Procedure, shortened: as §1

Chain of EIF2AK4 (Q9P2K8 whole entry, the tested form may be a part): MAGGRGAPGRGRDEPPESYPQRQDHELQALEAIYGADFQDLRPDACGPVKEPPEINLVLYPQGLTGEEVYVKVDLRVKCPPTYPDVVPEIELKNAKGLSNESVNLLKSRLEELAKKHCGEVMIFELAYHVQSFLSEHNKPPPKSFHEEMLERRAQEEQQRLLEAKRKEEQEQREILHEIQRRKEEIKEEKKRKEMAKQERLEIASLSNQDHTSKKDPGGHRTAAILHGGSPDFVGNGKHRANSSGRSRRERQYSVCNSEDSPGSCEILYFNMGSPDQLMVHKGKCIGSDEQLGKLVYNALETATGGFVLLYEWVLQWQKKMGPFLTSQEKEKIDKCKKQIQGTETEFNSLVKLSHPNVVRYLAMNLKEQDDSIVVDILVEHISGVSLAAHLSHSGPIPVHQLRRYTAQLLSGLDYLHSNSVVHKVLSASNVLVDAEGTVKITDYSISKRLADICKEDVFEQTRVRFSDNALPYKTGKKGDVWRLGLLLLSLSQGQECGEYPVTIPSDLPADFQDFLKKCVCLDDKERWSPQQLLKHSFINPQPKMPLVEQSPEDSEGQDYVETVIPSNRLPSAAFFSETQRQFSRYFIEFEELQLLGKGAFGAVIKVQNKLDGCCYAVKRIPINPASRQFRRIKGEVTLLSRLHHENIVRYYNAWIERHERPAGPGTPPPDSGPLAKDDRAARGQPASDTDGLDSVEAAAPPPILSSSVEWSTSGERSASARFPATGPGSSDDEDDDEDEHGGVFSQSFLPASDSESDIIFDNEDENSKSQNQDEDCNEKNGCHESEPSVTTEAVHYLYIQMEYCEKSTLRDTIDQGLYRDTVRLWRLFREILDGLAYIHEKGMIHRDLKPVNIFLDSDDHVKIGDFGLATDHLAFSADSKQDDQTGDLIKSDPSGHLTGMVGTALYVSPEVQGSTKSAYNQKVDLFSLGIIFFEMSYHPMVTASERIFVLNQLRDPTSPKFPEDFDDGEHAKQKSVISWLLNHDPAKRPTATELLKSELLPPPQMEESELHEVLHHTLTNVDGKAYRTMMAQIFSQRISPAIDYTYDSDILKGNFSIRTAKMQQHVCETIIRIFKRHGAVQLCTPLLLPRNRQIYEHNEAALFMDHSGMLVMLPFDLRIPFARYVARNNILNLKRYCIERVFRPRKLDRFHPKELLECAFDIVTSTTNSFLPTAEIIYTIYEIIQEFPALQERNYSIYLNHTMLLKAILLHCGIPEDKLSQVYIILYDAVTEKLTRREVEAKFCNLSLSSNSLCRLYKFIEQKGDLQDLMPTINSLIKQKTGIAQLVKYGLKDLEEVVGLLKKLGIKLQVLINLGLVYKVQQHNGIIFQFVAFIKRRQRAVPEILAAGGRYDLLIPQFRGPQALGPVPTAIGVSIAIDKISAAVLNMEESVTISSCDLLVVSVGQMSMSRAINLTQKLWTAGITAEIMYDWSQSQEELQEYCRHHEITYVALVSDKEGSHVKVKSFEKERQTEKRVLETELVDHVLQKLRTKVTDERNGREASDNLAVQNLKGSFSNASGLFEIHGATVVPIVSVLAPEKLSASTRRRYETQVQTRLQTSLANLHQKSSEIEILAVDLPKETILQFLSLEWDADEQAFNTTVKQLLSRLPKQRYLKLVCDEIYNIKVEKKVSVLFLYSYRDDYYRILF

binding result (EIF2AK4): binds
binding result (ARHGEF28): binds
binding result (FKBP15): binds
binding result (LONP2): binds
binding result (THADA): binds
B1: LZTR1-FLAG (other, human, UniProt Q8N653 1-840, looked up)
chain: MAGPGSTGGQIGAAALAGGARSKVAPSVDFDHSCSDSVEYLTLNFGPFETVHRWRRLPPCDEFVGARRSKHTVVAYKDAIYVFGGDNGKTMLNDLLRFDVKDCSWCRAFTTGTPPAPRYHHSAVVYGSSMFVFGGYTGDIYSNSNLKNKNDLFEYKFATGQWTEWKIEGRLPVARSAHGATVYSDKLWIFAGYDGNARLNDMWTIGLQDRELTCWEEVAQSGEIPPSCCNFPVAVCRDKMFVFSGQSGAKITNNLFQFEFKDKTWTRIPTEHLLRGSPPPPQRRYGHTMVAFDRHLYVFGGAADNTLPNELHCYDVDFQTWEVVQPSSDSEVGGAEVPERACASEEVPTLTYEERVGFKKSRDVFGLDFGTTSAKQPTQPASELPSGRLFHAAAVISDAMYIFGGTVDNNIRSGEMYRFQFSCYPKCTLHEDYGRLWESRQFCDVEFVLGEKEECVQGHVAIVTARSRWLRRKITQARERLAQKLEQEAAPVPREAPGVAAGGARPPLLHVAIREAEARPFEVLMQFLYTDKIKYPRKGHVEDVLLIMDVYKLALSFQLCRLEQLCRQYIEASVDLQNVLVVCESAARLQLSQLKEHCLNFVVKESHFNQVIMMKEFERLSSPLIVEIVRRKQQPPPRTPLDQPVDIGTSLIQDMKAYLEGAGAEFCDITLLLDGHPRPAHKAILAARSSYFEAMFRSFMPEDGQVNISIGEMVPSRQAFESMLRYIYYGEVNMPPEDSLYLFAAPYYYGFYNNRLQAYCKQNLEMNVTVQNVLQILEAADKTQALDMKRHCLHIIVHQFTKVSKLPTLRSLSQQLLLDIIDSLASHISDKQCAELGADI
notes: Expressed in HEK 293T, HeLa or U87 cells; used as cell lysate; also called LZTR1 wild type-FLAG; LZTR1 WT; not shown: FLAG tag at the C-terminus
